In patent US20200268901A1 (Bristol-Myers Squibb, published 2020):
“And” between values parts separate entries of the source, which are not always exact repeats. Identical values can stand only once. Like-named read-outs stand apart in the source and are kept apart here.

B1: CD73.4-IgG2-C219S (antibody)
heavy: QVQLVESGGGVVQPGRSLRLSCAASGFTFSNYGMHWVRQAPGKGLEWVAVILYDGSNKYYPDSVKGRFTISRDNSKNTLYLQMNSLRAEDTAVYYCARGGSSWYPDSFDIWGQGTMVTVSSASTKGPSVFPLAPCSRSTSESTAALGCLVKDYFPEPVTVSWNSGALTSGVHTFPAVLQSSGLYSLSSVVTVPSSNFGTQTYTCNVDHKPSNTKVDKTVERKSCVECPPCPAPPVAGPSVFLFPPKPKDTLMISRTPEVTCVVVDVSHEDPEVQFNWYVDGVEVHNAKTKPREEQFNSTFRVVSVLTVVHQDWLNGKEYKCKVSNKGLPAPIEKTISKTKGQPREPQVYTLPPSREEMTKNQVSLTCLVKGFYPSDIAVEWESNGQPENNYKTTPPMLDSDGSFFLYSKLTVDKSRWQQGNVFSCSVMHEALHNHYTQKSLSLSPG
light: not shown
notes: anti-CD73; also called CD73.4-IgG2.3; CD73.4-IgG2CS
B2: CD73.4-IgG2.3-plusGGG (antibody)
heavy: QVQLVESGGGVVQPGRSLRLSCAASGFTFSNYGMHWVRQAPGKGLEWVAVILYDGSNKYYPDSVKGRFTISRDNSKNTLYLQMNSLRAEDTAVYYCARGGSSWYPDSFDIWGQGTMVTVSSASTKGPSVFPLAPCSRSTSESTAALGCLVKDYFPEPVTVSWNSGALTSGVHTFPAVLQSSGLYSLSSVVTVPSSNFGTQTYTCNVDHKPSNTKVDKTVERKSCVEGGGCPPCPAPPVAGPSVFLFPPKPKDTLMISRTPEVTCVVVDVSHEDPEVQFNWYVDGVEVHNAKTKPREEQFNSTFRVVSVLTVVHQDWLNGKEYKCKVSNKGLPAPIEKTISKTKGQPREPQVYTLPPSREEMTKNQVSLTCLVKGFYPSDIAVEWESNGQPENNYKTTPPMLDSDGSFFLYSKLTVDKSRWQQGNVFSCSVMHEALHNHYTQKSLSLSPGK
light: not shown

Legend:
[1] = target: T1, human CD73 on Calu6 cells (human, UniProt P21589 27-549); assay: cell-based or functional assay
T1 sequence (looked up): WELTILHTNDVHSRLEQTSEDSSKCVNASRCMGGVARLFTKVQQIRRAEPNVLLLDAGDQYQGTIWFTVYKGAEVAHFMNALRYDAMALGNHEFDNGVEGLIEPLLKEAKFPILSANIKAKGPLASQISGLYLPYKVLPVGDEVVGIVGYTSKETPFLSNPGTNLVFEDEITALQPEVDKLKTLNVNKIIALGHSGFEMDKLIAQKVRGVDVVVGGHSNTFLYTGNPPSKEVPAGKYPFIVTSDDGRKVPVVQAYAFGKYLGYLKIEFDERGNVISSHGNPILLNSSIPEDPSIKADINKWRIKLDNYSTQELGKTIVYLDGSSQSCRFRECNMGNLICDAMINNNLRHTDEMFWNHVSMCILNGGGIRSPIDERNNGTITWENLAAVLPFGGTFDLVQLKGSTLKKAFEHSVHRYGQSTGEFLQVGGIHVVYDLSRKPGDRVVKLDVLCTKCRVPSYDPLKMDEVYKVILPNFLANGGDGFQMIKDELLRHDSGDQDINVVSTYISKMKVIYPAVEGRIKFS

[2] = target: T2, hCD73-his (full length extracellular domain of human CD73, residues 26-546, C-terminal polyhistidine tag) (human, UniProt P21589 26-546); assay: SEC, 5.5 uM each; peak 4: free mAb
T2 construct: range 26-546; not shown: C-terminal polyhistidine tag
T2 sequence (looked up): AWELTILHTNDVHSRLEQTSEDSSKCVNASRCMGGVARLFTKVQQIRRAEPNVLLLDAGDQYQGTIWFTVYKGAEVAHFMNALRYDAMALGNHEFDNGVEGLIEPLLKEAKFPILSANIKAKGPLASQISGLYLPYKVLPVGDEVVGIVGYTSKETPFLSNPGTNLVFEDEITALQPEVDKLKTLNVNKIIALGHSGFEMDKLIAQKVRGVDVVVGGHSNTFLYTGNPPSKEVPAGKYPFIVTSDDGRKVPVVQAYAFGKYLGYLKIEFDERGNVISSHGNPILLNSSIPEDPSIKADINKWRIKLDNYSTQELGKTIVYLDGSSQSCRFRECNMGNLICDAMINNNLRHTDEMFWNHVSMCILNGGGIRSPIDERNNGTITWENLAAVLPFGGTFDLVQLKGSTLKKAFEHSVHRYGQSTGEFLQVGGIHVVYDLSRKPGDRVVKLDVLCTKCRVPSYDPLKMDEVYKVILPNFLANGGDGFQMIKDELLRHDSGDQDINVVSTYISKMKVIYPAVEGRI
Method: (§1) Isocratic separations were performed on a Shodex PROTEIN KW-803 column connected to an Prominence Shimadzu UFLC in buffer containing 200 mM K₂HPO₄, 150 mM NaCl, pH 6.8, containing 0.02% Na azide (0.1 μm filtered) running at 0.5 mL/min. Samples were injected onto the column using a SIL-20AC Prominence Shimadzu autosampler, and data were obtained from three online detectors connected in series: a Prominence SPD-20AD diode array UV/vis spectrophotometer followed by a Wyatt miniDAWN™ TREOS Multi-Angle Light Scattering Detector then a Wyatt Optilab T-rEX Refractive Index Detector. Data were collected and analyzed using Astra (Wyatt) and Labsolutions (Shimadzu) software.
(§2) CD73.4 antibodies having the heavy chain constant regions set forth in Table 14 were also tested for formation of high molecular weight complexes by SEC-MALS and DLS experiments, as described in Example 3.

[3] = target: T2, hCD73-his (full length extracellular …); assay: SEC, 5.5 uM each; peak 1: complexes larger than 4:4
Method: as §1, with “The oligomeric state of CD73/antibody complexes were examined by size-exclusion chromatography coupled to an in-line multi-angle light scattering detector (SEC-MALS). Isocratic” for “Isocratic”
as §2

[4] = target: T1, human CD73 on Calu6 cells; assay: cell-based or functional assay; remark: listed apart in the source
[5] = target: T1, human CD73 on Calu6 cells; assay: cell-based or functional assay; remark: listed apart in the source
[6] = target: T2, hCD73-his (full length extracellular …); assay: SEC, 5.5 uM each; peak 3: about 1:1 complexes
Method: as §1, with “The oligomeric state of CD73/antibody complexes were examined by size-exclusion chromatography coupled to an in-line multi-angle light scattering detector (SEC-MALS). Isocratic” for “Isocratic”
as §2

[7] = target: T2, hCD73-his (full length extracellular …); assay: SEC, 5.5 uM each; peak 2: about 2:2 complexes
Method: as §1, with “The oligomeric state of CD73/antibody complexes were examined by size-exclusion chromatography coupled to an in-line multi-angle light scattering detector (SEC-MALS). Isocratic” for “Isocratic”
as §2

| Binder | % internalization, Calu6 cells [1] | % internalization, H228 cells [1] | % internalization, H2030 cells [1] | % internalization, HCC15 cells [1] | T1/2 min of internalization, Calu6 cells [1] | T1/2 min of internalization, H228 cells [1] | T1/2 min of internalization, H2030 cells [1] | T1/2 min of internalization, HCC15 cells [1] | UV % Peak4 (16.7-19.3 min) [2] | UV % Peak1 (<12.9 min) [3] | T1/2 (hr) of CD73 internalization, Calu6 cells [4] | T1/2 (hr) of CD73 internalization, NCI-H292 cells [4] | Ymax (%) of CD73 internalization, Calu6 cells [4] | Ymax (%) of CD73 internalization, NCI-H292 cells [4] | T1/2 (hr) of CD73 internalization, Calu6 cells [5] | T1/2 (hr) of CD73 internalization, NCI-H292 cells [5] | UV % Peak3 (15.1-16.7 min) [6] | UV % Peak2 (12.9-15.1 min) [7] | Ymax (%) of CD73 internalization, Calu6 cells [5] | Ymax (%) of CD73 internalization, NCI-H292 cells [5] |
| --- | --- | --- | --- | --- | --- | --- | --- | --- | --- | --- | --- | --- | --- | --- | --- | --- | --- | --- | --- | --- |
| B1 | 88% | 94% | 89% | 94% | 6.5 min | 13.8 min | 3.7 min | 3.1 min | 28.6% | 37% | 0.6 h | 0.277 h | 75.6% | 78.4% | 0.372 h and 0.364 h | 0.287 h and 0.284 h | 7.7% | – | – | – |
| B2 | – | – | – | – | – | – | – | – | 34.9% | 30% | – | – | – | – | 0.336 h | 0.271 h | – | 23.9% | 81.7% | 91.6% |
